Data from patent EP4324846A1 (Eberhard Karls Universität Tübingen, Medizinische Fakultät, dated 2024).

Legend:
[1] = biological target: T1, d3-wt (human EGFR domain 3) (human, UniProt P00533 337-504, limits assumed); assay: SPR (Biacore X100), HB-EGF immobilized on CM5, multi-cycle kinetics
T1 construct: Expressed in E. coli from pET-28a(+) and purified on a HisTrap column; Monomeric fraction used; also called wild type d3; wild-type d3 domain

[2] = biological target: T2, EGF (Peprotech AF-100-15) (UniProt P01133 971-1023); assay: SPR, EGF immobilized; reference d3-wt
T2 construct: Immobilized on a CM5 chip by amine coupling; Also added at 400 pM in the A431 proliferation assay; also called epidermal growth factor

[3] = biological target: T2, EGF (Peprotech AF-100-15); assay: SPR (Biacore X100), EGF immobilized on CM5, multi-cycle kinetics

T2 sequence (P01133 971-1023 limits assumed): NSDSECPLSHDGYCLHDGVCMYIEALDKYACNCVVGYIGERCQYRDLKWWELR

Row | Kd [1] [nM] | fold tighter binding than d3-wt [2] [fold] | Kd [3] [nM] | Binder
1 | 263 | – | – | HB-EGF (R&D Systems 259-HE-050/CF) (ligand, UniProt Q99075 63-148, looked up, Immobilized on a CM5 chip by amine coupling) DLQEADLDLLRVTLSSKPQALATPNKEEHGKRKKKGKGLGKKRDPCLRKYKDFCIHGECKYVKELRAPSCICHPGYHGERCHGLSL
2 | – | 5 | 10 | dd3-1 (designed binder, Expressed in E. coli from pET-28a(+) and purified on a HisTrap column; also called design) ANGIGIGEFKDSLSIWAWNIKHFKNARSISGDLHILPVAFRGDSFTHTPPLEPKELEILKTVKEITGYLLVQAWPENRTDLHAFENLEIIRGRTKQHGQFSLAVVSLNVTSLGLRSLKEISDGDVIMSGNKNLKMANEMNWKKMFGTSGQKTKIISNRGE
